According to article PMC2119555:
Where “and” joins values, the source holds several entries; their conditions need not be identical. Equal values may be shown once.

Legend:
[1] = molecular target: murine FGFR-2 (bek) expressed on CHO cells (murine) (UniProt P21803); test: radioligand binding
[2] = molecular target: murine FGFR-1 (flg) expressed on CHO cells (murine) (UniProt P16092); test: radioligand binding

Binder | Kd [1] [pM] | fold affinity over K-FGF (competition) [1] [fold] | fold affinity over bFGF and K-FGF (competition against 125I-bFGF) [1] | Kd [2] [pM] | fold more unlabeled competitor required than of K140 [2] [fold]
recombinant K140 (NH2-terminally truncated K-FGF, residues 67-206) (ligand, 125I-labeled Bolton-Hunter reagent (where used as the labelled ligand)) MAAVQSGAGDYLLGIKRLRRLYCNVGIGFHLQALPDGRIGGAHADTRDSLLELSPVERGVVSIFGVASRFFVAMSSKGKLYGSPFFTDECTFKEILLPNNYNAYESYKYPGMFIALSKNGKTKKGNRVSPTMKVTHFLPRL | 60 | 2 | 2 fold and 3 fold | 90 | 
recombinant wild-type K-FGF (human K-FGF/HST, FGF-4) (ligand, 125I-labeled Bolton-Hunter reagent (where used as the labelled ligand)) APTAPNGTLEAELERRWESLVALSLARLPVAAQPKEAAVQSGAGDYLLGIKRLRRLYCNVGIGFHLQALPDGRIGGAHADTRDSLLELSPVERGVVSIFGVASRFFVAMSSKGKLYGSPFFTDECTFKEILLPNNYNAYESYKYPGMFIALSKNGKTKKGNRVSPTMKVTHFLPRL | 140 |  |  | 280 | 5
